Data taken from article PMC10631681, “The structural basis of mRNA recognition and binding by yeast pseudouridine synthase PUS1”.
Positions count from the first letter of the chain named.

Key:
PUS1 D134A (His-tagged) = molecular target: T1, PUS1 D134A (His-tagged) (Saccharomyces cerevisiae, UniProt Q12211 1-544, D134A); experiment: EMSA; 100 nM RNA, increasing protein; EMSA: 100 nM R263 with 100 nM-1 uM PUS1 in 100 ul under PUS1 activity assay conditions (buffer not in the material), 90 min, SYBR Gold stain; crystals: 7R9G 0.05 M ammonium sulfate, 0.05 M Bis-Tris pH 6.0, 26% pentaerythritol ethoxylate, 4 C; 7R9F 0.2 M K/Na tartrate, 18% PEG 3350, 25 C; details: protein: recombinant; tags: N-terminal 6xHis; predicted short stem-loop; strand state in EMSA not determined
T1 sequence: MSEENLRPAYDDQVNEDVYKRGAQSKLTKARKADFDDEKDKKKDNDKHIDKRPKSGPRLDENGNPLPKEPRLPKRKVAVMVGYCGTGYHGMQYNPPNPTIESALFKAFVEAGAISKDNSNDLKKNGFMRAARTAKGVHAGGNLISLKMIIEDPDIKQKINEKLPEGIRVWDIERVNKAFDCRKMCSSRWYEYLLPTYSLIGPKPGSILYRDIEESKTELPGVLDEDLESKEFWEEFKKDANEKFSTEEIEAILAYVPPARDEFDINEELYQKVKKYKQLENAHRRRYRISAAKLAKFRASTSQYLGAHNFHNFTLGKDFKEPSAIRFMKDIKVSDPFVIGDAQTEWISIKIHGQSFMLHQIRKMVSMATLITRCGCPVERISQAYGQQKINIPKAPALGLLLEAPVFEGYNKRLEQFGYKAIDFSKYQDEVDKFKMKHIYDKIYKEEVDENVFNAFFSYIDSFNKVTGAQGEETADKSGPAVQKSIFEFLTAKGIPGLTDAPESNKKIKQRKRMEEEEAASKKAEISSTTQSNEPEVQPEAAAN

[1] = molecular target: T2, PUS1 wild type (His-tagged) (Saccharomyces cerevisiae, UniProt Q12211 1-544); experiment: as above; details: protein: recombinant; tags: N-terminal 6xHis; predicted short stem-loop; strand state in EMSA not determined
T2 sequence: T1 sequence with A134D

[2] = molecular target: T3, PUS1 D134A (tagless, crystal) (Saccharomyces cerevisiae, UniProt Q12211 1-544, D134A); experiment: X-ray crystallography (2.4 A); sulfate ion near RNA 5' end; EMSA: 100 nM R263 with 100 nM-1 uM PUS1 in 100 ul under PUS1 activity assay conditions (buffer not in the material), 90 min, SYBR Gold stain; crystals: 7R9G 0.05 M ammonium sulfate, 0.05 M Bis-Tris pH 6.0, 26% pentaerythritol ethoxylate, 4 C; 7R9F 0.2 M K/Na tartrate, 18% PEG 3350, 25 C; details: protein: recombinant; tags: none; chain copies: 2; self-duplex of 2 copies; positions 2-10 paired with non-Watson-Crick pairs (two central G:G reverse Hoogsteen); 3' ends disordered
T3 sequence: T1 sequence

[3] = molecular target: T4, PUS1 wild type (tagless, crystal) (Saccharomyces cerevisiae, UniProt Q12211 1-544); experiment: X-ray crystallography (2.9 A); EMSA: 100 nM R263 with 100 nM-1 uM PUS1 in 100 ul under PUS1 activity assay conditions (buffer not in the material), 90 min, SYBR Gold stain; crystals: 7R9G 0.05 M ammonium sulfate, 0.05 M Bis-Tris pH 6.0, 26% pentaerythritol ethoxylate, 4 C; 7R9F 0.2 M K/Na tartrate, 18% PEG 3350, 25 C; details: protein: recombinant; tags: none; chain copies: 2; self-duplex of 2 copies, same duplex as R263
T4 sequence: T1 sequence with A134D

Question: Does AAAUCGGGAUUCCGGAUA (ssRNA) [R263 (EMSA)] bind (PUS1 D134A (His-tagged))?
Answer: binds

Question: Does AAAUCGGGAUUCCGGAUA (ssRNA) [R263 (EMSA)] bind [1]?
Answer: binds

B1: R263 duplex (crystal) (dsRNA)
RNA 1: AAAUCGGGAUUCCGGAUA
RNA 2: AAAUCGGGAUUCCGGAUA
Question: Does B1 bind [2]?
Answer: binds

B2: R340 duplex (crystal) (dsRNA)
RNA 1: UAAUCGGGAUUCCGGAUA
RNA 2: UAAUCGGGAUUCCGGAUA
modifications: 5-fluorouracil at position 1 (written as U)
Question: Does B2 bind [3]?
Answer: binds
